Results reported in the supplement of paper PMC9170038.

Tested on: MS2 coat protein
Test: apparent KD of MS2 coat protein; designed switch direction (-1 OFF switch, 1 ON switch): -1; higher = weaker reporter binding
Procedure, shortened: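 For each design, the apparent KD is the median over clusters of curves fitted to normalised cluster fluorescence. Clusters held RNA switches with common flanks, transcribed on Illumina chips by stalled E. coli RNA polymerase. These were titrated with SNAP-549-labelled MS2 coat protein, doubling from 0.7 or 1.5 nM to 3 µM, without input, with 200 uM small-molecule ligand, or with an oligonucleotide input.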

[1] = Eterna round: R95, input ligand: FMN 200 uM
[2] = Eterna round: R95, input ligand: microRNA oligo, concentration not stated
[3] = Eterna round: R95, input ligand: none
[4] = input ligand: microRNA oligo, concentration not stated

Sequence	apparent KD of MS2 coat protein (input ligand: FMN 200 uM) [nM]	apparent KD of MS2 coat protein (input ligand: none) [nM]	apparent KD of MS2 coat protein [1] [nM]	apparent KD of MS2 coat protein [2] [nM]	apparent KD of MS2 coat protein [3] [nM]	apparent KD of MS2 coat protein [4] [nM]
CGUCUGUAAGGAUAUGGUAGCAUUUACAUGAGGAUCACCCAUGUUACAUGGGACUAGUGAUUAGAAGGUACGAACG [EX5 #55] (Eterna round: R97, puzzle: Exclusion 5)	276	322				
CCGGCGUCAGGAUAUCGUAGCAGGACAUUCAGUCGCGGCUAUGAGAAGGGACAUGAGGAUCACCCAUGUCCUCA [Eternabot (Original) Solution 22] (Eterna round: R97, puzzle: Exclusion 4)	29.5	21.5				
AGACAGUCAGGAUAUACAUGAGGAUCACCCAUGUUAAGAAGAGAAAGGGCAGGAAGAGGUAGAAGGGACAAGAA [JR_Exclu3_Sub033] (puzzle: Exclusion 3)			21.1	23.6	29.5	
CGUAGCAAAGUGAGGAUAUCUAGAGCCUCGGCUCUAGAGAAGGCACAUGAGGAUCACCCAUGUGAUUAGCUACG [BmEx4/9-A2] (Eterna round: R97, puzzle: Brourd's mod of Exclusion 4)	173	24.1				
AUGGUACAUGAGGAUCACCCAUGUUAGGAUAUCGCGUGAGGUAAAACUUACACACACACGAGAAGGGACGACAU (puzzle: Exclusion 1)				55.1		
UGAUCUAGCGGAGGAUAUACAUGAGGAUCACCCAUGUAGAUAAGUGUACCGUAGUGCACUAUUGUGUAGAAGGCCGCUAGAUCU [JL ENG2 3.64] (Eterna round: R96, puzzle: Exclusion NG 2)	30.5	11.9				9.35
GUGAAGUGAGGAUAUACGAGAGAGGCUGAACCGGACGAGAAGUAGAAGGCACAUGAGGAUCACCCAUGUAAGGA [JR_Exclu4_Sub022] (puzzle: Exclusion 4)				34.4		
CCUUUGUCAGGAUAUCAGAAAACGCUCGUAGGGAGCGCAAAUGAGAAGGGACAUGAGGAUCACCCAUGUAAAGA [Edmareen] (puzzle: Exclusion 4)			219	45.1	60.3	
AAAAGGAUAGGAUAUGCUCUAGGACACUUGAGGAUCACCCAAGUGUCGGCAAGGUCCUAGGCAGAAGGAUCUGGCA [Onordibi] (Eterna round: R97, puzzle: Exclusion 5)	88.3	29.9				
CGCUGGUGAGGAUAUGGGUGUGGUUACAUGAGGAUCACCCAUGUGGUGUCGCAUGUGGGUCCAGAAGGCGCGGGUG [-25.2, -23.4 kcal, 17% A] (Eterna round: R97, puzzle: Exclusion 5)	856	585				
AAAAUGGUCUAGGAUAUGACAAAUCUGAGCACGUCAGAAGGAGACACAUGAGGAUCACCCAUGUGGGUGCGAAA [Erteedza] (puzzle: Exclusion 6)			324	31.8	35.2	
ACAUGAGGAUCACCCAUGUCCGGCUGGUCUGUUUCGGUUGUCGAGGAUAUAGUUCGGUGUUCGCGCUAGAAGGUGGGAGCUGGG [Aenatbe mod 56] (Eterna round: R96, puzzle: Exclusion NG 3)	161	147				116
AGUAACUAUCACGAAAGUGAUAGUUACAACAGGUGAUAAACAUGAGGAUCACCCAUGUCCUCAUUUGCUCGUCUUAU [Sensor 3 - 11] (puzzle: Sensor v3, turn-off variant 2)			984	422	527	
CACAAGCUUUUUUGAUGCAUUUUAGUUGGUUGCCUUUUUACAUGAGGAUCACCCAUGUUUGUGUAGCUCGAUCUUUU [JR_SV3TOV2_Sub078] (puzzle: Sensor v3, turn-off variant 2)			36.5	29	41.2	
GCCUCACAUGAGGAUCACCCAUGUCAGGAUAUAGGAGACGGCAGAAAUCCUGCCAUCGCUAGAAGGGACUGGCA [Tirebi] (Eterna round: R96, puzzle: Exclusion 1)	138	67				50.6
GUGUUUUAUGUAGGAUAUGCAUACUGUUAGUAUGCAGAAGGACAUGAGGAUCACCCAUGUAUAUUAUUAUUAUAUAUCAUACAU [MOD2 of Hoglahoo's Title] (Eterna round: R96, puzzle: Exclusion NG 1)	98	18.9				16
UUGCCACAUGAGGAUCACCCAUGUGAGGAUAUGGCCUGUUUGGAGUGUGCUGGUUCUGUCAGAAGGCGCGUGGG [salish99_ex1_r4_033] (Eterna round: R97, puzzle: Exclusion 1)	49.5	33.6				
AGAUGUAGAUACCGAUCCUACAUGAGGAUCACCCAUGUAGCUAGACGUGCUCGCGUGGCUCGUCAGACUACCAGUAG [salish99_TOv1_r3_091] (puzzle: Sensor v3, turn-off variant 1)			243	211	281	

Sequence	apparent KD of MS2 coat protein (input ligand: FMN 200 uM) [nM]	apparent KD of MS2 coat protein (input ligand: none) [nM]	apparent KD of MS2 coat protein [1] [nM]	apparent KD of MS2 coat protein [2] [nM]	apparent KD of MS2 coat protein [3] [nM]	apparent KD of MS2 coat protein [4] [nM]
UGAUUGAUUAACAGAUUAUACAUGAGGAUCACCCAUGUAGGUCCUACGUGCCCUUUAUGCAGCUCGUCUUAUUCCCA [Sensor-V1 #70] (Eterna round: R97, puzzle: Sensor, turn-off variant 1)	53.6	50				
CCCUCACUUGAGGAUCACCCAAGUCAGGAUAUCUCCCGCCCAACACCAUCCGGGCGCCAGAGAAGGGACUCAAA [Soenonor] (Eterna round: R97, puzzle: Exclusion 1)	24.4	17.5				
AUUUGCACGCUGCGGUCCUACAUGAGGAUCACCCAUGUGGUCUGGUGGCGUGGGUCGCCGGACUUGGCUCGUCUUGG [salish99_S_TOV1_R5_034] (Eterna round: R97, puzzle: Sensor, turn-off variant 1)	14.9	14.7				
UUUUAACAUGAGGAUCACCCAUGUGAGGAUAUCGAAAUUUAUAUUAAUAUUAAUAAAACGAGAAGGCACAUUUU [JMF 4] (puzzle: Exclusion 1)				75.1		
GCAGCAUAUGUAGGAUAUCUGCACGUUUAGUGCAGAGAAGGACAUGAGGAUCACCCAUGUAAUUAAGAUCAAUUAUUAAGCUGC [ENG1/4-A2] (Eterna round: R96, puzzle: Exclusion NG 1)	42.5	26.2				17.2
GGCACACAUGAGGAUCACCCAUGUGAGGAUAUGGUGCGAUCGUCGAUAGACGAUAGCACUAGAAGGCACAUGCC [Mat - Exclusion 1 - Eli Mod - D6] (Eterna round: R97, puzzle: Exclusion 1)	25.5	17.8				
ACCACCUUAGUCAGGAUAUAGCUUCUAGCAAGAUACUAGAAGGGACAUGAGGAUCACCCAUGUAAAGGUGCUAA [Ramais] (puzzle: Brourd's mod of Exclusion 4)			25.3	29	27.2	
CCGGUUGGCGCAGGAUAUACAUGAGGAUCACCCAUGUUGAUGAGGAUCACCCAUCAGUUUUUGUUGUAGAAGGGUGGCCCGGCC (Eterna round: R96, puzzle: Exclusion NG 2)						16.2
UUUUGGCAAGCGAGAUCCCACAUGAGGAUCACCCAUGUUGACCAUGGUUUCCAUGGUCAUUUUGCUCGUCUUGUGUG [jl TITIN mod 1] (Eterna round: R97, puzzle: Sensor, turn-off variant 1)	31.3	31.8				
AAAUCACAUGAGGAUCACCCAUGUGAGGAUAUGAUACUAUGUACUUCGGUACAUAGUAUCAGAAGGCAUAUGGA [Ex1-3: 32] (Eterna round: R96, puzzle: Exclusion 1)	39.4	23.7				20.6
GGCAUGUAAGGAUAUGCCACGCAGGCCUUUGGCCUGCGUAAGCAGAAGGUACAUGAGGAUCACCCAUGUGAUAA [jl-ex4-4.57 ViennaUCT mod] (Eterna round: R97, puzzle: Exclusion 4)	129	727				
UUGUUACGAUUAGGAUAUUAUAGAUUGAAUAGUAUGAUUUACAUGAGGAUCACCCAUGUUACAUUUAAGAAGGAAUCGAAUUAU [JR_ExcNG2_Sub089] (Eterna round: R96, puzzle: Exclusion NG 2)						16.1
GGAAAUCAUGUAGGAUAUGCGUGGCGAAGCUAUGCAGAAGGACAUGAGGAUCACCCAUGUGCUUCCGUCUGCGUACAGACGGUA [Mat - Exclusion NG 1 - Mod of JL - D19] (Eterna round: R96, puzzle: Exclusion NG 1)	80.2	143				78.5
UUUUUGUAUGAAGGAUAUACUUAACAUGAGGAUCACCCAUGUGGUGUUGUGAGUGAGUGAGUUUAGUAGAAGGUCAAUUAUUUU [JMF's solution 24] (Eterna round: R96, puzzle: Exclusion NG 2)	843	361				346
CCCUCACAUGAGGAUCACCCAUGUCAGGAUAUCUCACAUCGGCCUUAGGCCGAUGUCUAGAGAAGGGACGUAUC [Ceonte] (puzzle: Exclusion 1)				22.9		
AACUCACAUGAGGAUCACCCAUGUGAGGAUAUGAUACUAUGUACUUCGGUACAUAGUAUCAGAAGGCAUGUGGA [Ex1-3: 90] (puzzle: Exclusion 1)				12.9		
UGAUCAGACCGAGGAUAUAUAUGUAGGACCCACGUGAGUGGGUCCAGUACAUGAGGAUCACCCAUGUAGAAGGCGGUCUGAUCU [JL ENG2 1.87] (Eterna round: R96, puzzle: Exclusion NG 2)	19.2	15				10.7
